In patent US20110052582A1 (Hoffmann-La Roche, published 2011) one finds relative binding ratio data, which are given here for 18 molecules.

The chains are these.
T1: Soluble CDCP1 extracellular domain (CDCP1-ECD) (SEQ ID NO:30) fused to Streptavidin Binding Protein (SBP) (human, UniProt Q9H5V8 30-663)
T1 construct: also called SBP-CDCP1-ECD
T1 sequence: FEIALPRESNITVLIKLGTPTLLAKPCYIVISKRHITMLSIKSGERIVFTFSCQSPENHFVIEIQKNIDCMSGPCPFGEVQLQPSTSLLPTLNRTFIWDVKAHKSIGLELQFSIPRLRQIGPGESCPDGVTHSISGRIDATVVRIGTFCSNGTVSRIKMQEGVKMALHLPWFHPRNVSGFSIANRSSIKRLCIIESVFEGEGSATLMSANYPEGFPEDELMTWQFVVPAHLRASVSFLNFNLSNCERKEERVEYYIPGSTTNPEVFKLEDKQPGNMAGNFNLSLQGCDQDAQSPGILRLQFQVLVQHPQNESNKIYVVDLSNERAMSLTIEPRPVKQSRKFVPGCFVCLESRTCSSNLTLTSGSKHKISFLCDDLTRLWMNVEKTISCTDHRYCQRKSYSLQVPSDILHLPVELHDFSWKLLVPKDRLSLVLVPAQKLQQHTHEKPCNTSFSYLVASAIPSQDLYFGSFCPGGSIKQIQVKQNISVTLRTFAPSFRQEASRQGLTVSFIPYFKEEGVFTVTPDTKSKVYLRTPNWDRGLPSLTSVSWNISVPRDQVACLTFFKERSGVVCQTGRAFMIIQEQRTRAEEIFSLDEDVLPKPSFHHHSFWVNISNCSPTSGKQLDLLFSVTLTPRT

B1: hHC4-d / hLC4-J (antibody, V domains shown)
VH: EVQLLESGGGLVQPGGSLRLSCAASGFTFNSYGMSWVRQAPGKGLEWVSTISSGGSYTYYPDSVKGRFTISRDNSKNTLYLQMNSLRAEDTAVYYCAKHPDYDGVWFAYWGQGTLVTVSS
VL: EIVMTQSPATLSLSPGERATMSCRASSSVFYLHWYQQKPGQAPRLWIYDTSKLASGIPARFSGSGSGTDFTLTISSLQPEDFAVYYCQQWNSNPPTFGGGTKVEIK
B2: hHC4-04 / hLC4-c (antibody, V domains shown)
VH: EVQLLESGGGLVQPGGSLRLSCAASGFTFNSYGMSWVRQAPGKGLEWVSTISSGGSYTYYPDSVKGRFTISRDNSKNTLYLQMNSLRAEDTAVYYCARHPDYDGVWFAYWGQGTLVTVSS
VL: EIVMTQSPATLSVSPGERATLSCSVSSSVFYVHWYQQKPGQAPRLLIYDTSKLASGIPARFSGSGSGTEFTLTISSLQSEDFAVYYCQQWNSNPPTFGGGTKVEIK
B3: hHC4-H / hLC4-c (antibody, V domains shown)
VH: EVQLVESGGGLVQPGGSLRLSCAASGFTFNSYGMSWVRQAPGKGLEWVATISSGGSYKYYVDSVKGRFTISRDNAKNSLYLQMNSLRAEDTAVYYCARHPDYDGVWFAYWGQGTLVTVSS
VL: EIVMTQSPATLSVSPGERATLSCSVSSSVFYVHWYQQKPGQAPRLLIYDTSKLASGIPARFSGSGSGTEFTLTISSLQSEDFAVYYCQQWNSNPPTFGGGTKVEIK
notes: also called Humanized CUB4 Antibody No. 113
B4: hHC4-H / hLC4-d (antibody, V domains shown)
VH: EVQLVESGGGLVQPGGSLRLSCAASGFTFNSYGMSWVRQAPGKGLEWVATISSGGSYKYYVDSVKGRFTISRDNAKNSLYLQMNSLRAEDTAVYYCARHPDYDGVWFAYWGQGTLVTVSS
VL: EIVMTQSPATLSVSPGERATLSCSVSSSVFYVHWYQQKPGQAPRLLIYDTSKLASGIPARFSGSGSGTEYTLTISSLQSEDFAVYYCQQWNSNPPTFGGGTKVEIK
notes: also called Humanized CUB4 Antibody No. 124
B5: hHC4-07 / hLC4-d (antibody, V domains shown)
VH: EVQLLESGGGLVQPGGSLRLSCAASGFTFNSYAMSWVRQAPGKGLEWVSTISSGGSYTYYPDSVKGRFTISRDNSKNTLYLQMNSLRAEDTAVYYCAKHPDYDGVWFAYWGQGTLVTVSS
VL: EIVMTQSPATLSVSPGERATLSCSVSSSVFYVHWYQQKPGQAPRLLIYDTSKLASGIPARFSGSGSGTEYTLTISSLQSEDFAVYYCQQWNSNPPTFGGGTKVEIK
B6: hHC4-03 / hLC4-d (antibody, V domains shown)
VH: EVQLLESGGGLVQPGGSLRLSCAASGFTFNSYGMSWVRQAPGKGLEWVSAISSGGSYTYYPDSVKGRFTISRDNSKNTLYLQMNSLRAEDTAVYYCAKHPDYDGVWFAYWGQGTLVTVSS
VL: EIVMTQSPATLSVSPGERATLSCSVSSSVFYVHWYQQKPGQAPRLLIYDTSKLASGIPARFSGSGSGTEYTLTISSLQSEDFAVYYCQQWNSNPPTFGGGTKVEIK
B7: hHC4-I / hLC4-b (antibody, V domains shown)
VH: EVQLLESGGGLVQPGGSLRLSCAASGFTFNSYAMSWVRQAPGKGLEWVSAISSGGSYTYYADSVKGRFTISRDNSKNTLYLQMNSLRAEDTAVYYCAKHPDYDGVWFAYWGQGTLVTVSS
VL: EIVLTQSPATLSLSPGERATLSCSVSSSVFYVHWYQQKPGQAPRLLIYDTSKLASGIPARFSGSGSGTDYTLTISSLEPEDFAVYYCQQWNSNPPTFGGGTKVEIK
B8: hHC4-d / hLC4-c (antibody, V domains shown)
VH: EVQLLESGGGLVQPGGSLRLSCAASGFTFNSYGMSWVRQAPGKGLEWVSTISSGGSYTYYPDSVKGRFTISRDNSKNTLYLQMNSLRAEDTAVYYCAKHPDYDGVWFAYWGQGTLVTVSS
VL: EIVMTQSPATLSVSPGERATLSCSVSSSVFYVHWYQQKPGQAPRLLIYDTSKLASGIPARFSGSGSGTEFTLTISSLQSEDFAVYYCQQWNSNPPTFGGGTKVEIK
B9: hHC4-04 / hLC4-d (antibody, V domains shown)
VH: EVQLLESGGGLVQPGGSLRLSCAASGFTFNSYGMSWVRQAPGKGLEWVSTISSGGSYTYYPDSVKGRFTISRDNSKNTLYLQMNSLRAEDTAVYYCARHPDYDGVWFAYWGQGTLVTVSS
VL: EIVMTQSPATLSVSPGERATLSCSVSSSVFYVHWYQQKPGQAPRLLIYDTSKLASGIPARFSGSGSGTEYTLTISSLQSEDFAVYYCQQWNSNPPTFGGGTKVEIK
B10: hHC4-03 / hLC4-c (antibody, V domains shown)
VH: EVQLLESGGGLVQPGGSLRLSCAASGFTFNSYGMSWVRQAPGKGLEWVSAISSGGSYTYYPDSVKGRFTISRDNSKNTLYLQMNSLRAEDTAVYYCAKHPDYDGVWFAYWGQGTLVTVSS
VL: EIVMTQSPATLSVSPGERATLSCSVSSSVFYVHWYQQKPGQAPRLLIYDTSKLASGIPARFSGSGSGTEFTLTISSLQSEDFAVYYCQQWNSNPPTFGGGTKVEIK
B11: hHC4-d / hLC4-d (antibody, V domains shown)
VH: EVQLLESGGGLVQPGGSLRLSCAASGFTFNSYGMSWVRQAPGKGLEWVSTISSGGSYTYYPDSVKGRFTISRDNSKNTLYLQMNSLRAEDTAVYYCAKHPDYDGVWFAYWGQGTLVTVSS
VL: EIVMTQSPATLSVSPGERATLSCSVSSSVFYVHWYQQKPGQAPRLLIYDTSKLASGIPARFSGSGSGTEYTLTISSLQSEDFAVYYCQQWNSNPPTFGGGTKVEIK
B12: hHC4-07 / hLC4-c (antibody, V domains shown)
VH: EVQLLESGGGLVQPGGSLRLSCAASGFTFNSYAMSWVRQAPGKGLEWVSTISSGGSYTYYPDSVKGRFTISRDNSKNTLYLQMNSLRAEDTAVYYCAKHPDYDGVWFAYWGQGTLVTVSS
VL: EIVMTQSPATLSVSPGERATLSCSVSSSVFYVHWYQQKPGQAPRLLIYDTSKLASGIPARFSGSGSGTEFTLTISSLQSEDFAVYYCQQWNSNPPTFGGGTKVEIK
B13: hHC4-d / hLC4-L2 (antibody, V domains shown)
VH: EVQLLESGGGLVQPGGSLRLSCAASGFTFNSYGMSWVRQAPGKGLEWVSTISSGGSYTYYPDSVKGRFTISRDNSKNTLYLQMNSLRAEDTAVYYCAKHPDYDGVWFAYWGQGTLVTVSS
VL: EIVLTQSPATLSLSPGERATMSCSVSSSVFYLHWYQQKPGQAPRLWIYDTSKLASGIPARFSGSGSGTDFTLTISSLEPEDFAVYYCQQWNSNPPTFGGGTKVEIK
B14: hHC4-d / hLC4-L (antibody, V domains shown)
VH: EVQLLESGGGLVQPGGSLRLSCAASGFTFNSYGMSWVRQAPGKGLEWVSTISSGGSYTYYPDSVKGRFTISRDNSKNTLYLQMNSLRAEDTAVYYCAKHPDYDGVWFAYWGQGTLVTVSS
VL: EIVLTQSPATLSLSPGERATMSCRASSSVFYLHWYQQKPGQAPRLWIYDTSKLASGIPARFSGSGSGTDFTLTISSLEPEDFAVYYCQQWNSNPPTFGGGTKVEIK
B15: hHC4-d / hLC4-M (antibody, V domains shown)
VH: EVQLLESGGGLVQPGGSLRLSCAASGFTFNSYGMSWVRQAPGKGLEWVSTISSGGSYTYYPDSVKGRFTISRDNSKNTLYLQMNSLRAEDTAVYYCAKHPDYDGVWFAYWGQGTLVTVSS
VL: EIVLTQSPATLSLSPGERATMSCGASSSVFYLHWYQQKPGLAPRLWIYDTSKLASGIPDRFSGSGSGTDFTLTISRLEPEDFAVYYCQQWNSNPPTFGGGTKVEIK
B16: hHC4-d / hLC4-a (antibody, V domains shown)
VH: EVQLLESGGGLVQPGGSLRLSCAASGFTFNSYGMSWVRQAPGKGLEWVSTISSGGSYTYYPDSVKGRFTISRDNSKNTLYLQMNSLRAEDTAVYYCAKHPDYDGVWFAYWGQGTLVTVSS
VL: EIVLTQSPATLSLSPGERATLSCSVSSSVFYVHWYQQKPGQAPRLLIYDTSKLASGIPARFSGSGSGTDFTLTISSLEPEDFAVYYCQQWNSNPPTFGGGTKVEIK
B17: hHC4-d / hLC4-K (antibody, V domains shown)
VH: EVQLLESGGGLVQPGGSLRLSCAASGFTFNSYGMSWVRQAPGKGLEWVSTISSGGSYTYYPDSVKGRFTISRDNSKNTLYLQMNSLRAEDTAVYYCAKHPDYDGVWFAYWGQGTLVTVSS
VL: EIVLTQSPATLSLSPGERATLSCRASSSVFYLHWYQQKPGQAPRLWIYDTSKLASGIPARFSGSGSGTDFTLTISSLEPEDFAVYYCQQWNSNPPTFGGGTKVEIK
B18: hHC4-d / hLC4-b (antibody, V domains shown)
VH: EVQLLESGGGLVQPGGSLRLSCAASGFTFNSYGMSWVRQAPGKGLEWVSTISSGGSYTYYPDSVKGRFTISRDNSKNTLYLQMNSLRAEDTAVYYCAKHPDYDGVWFAYWGQGTLVTVSS
VL: EIVLTQSPATLSLSPGERATLSCSVSSSVFYVHWYQQKPGQAPRLLIYDTSKLASGIPARFSGSGSGTDYTLTISSLEPEDFAVYYCQQWNSNPPTFGGGTKVEIK

The target in this assay is T1, Soluble CDCP1 extracellular domain …. Description: ELISA on captured SBP-CDCP1-ECD, ratio relative to chimeric CUB4 (chHC4). In a few lines: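 Streptavidin plates coated overnight at 2–8° C with SBP-CDCP1-ECD HEK293 supernatant (1:15–1:40). Antibodies, undiluted or 12-step dilution, bound 90 min at room temperature; HRP anti-human IgG 1 h, ABTS read at 405/492 nm, signal expressed relative to chimeric chHC4 reference.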
For orientation: In an ELISA, binding on a coated surface is turned into a signal by an enzyme label.
With B1, the relative binding ratio was 0.38.

Take B2: the relative binding ratio stood at 0.33.

Consider B3, for which the relative binding ratio is 0.44.

Regarding B4, the relative binding ratio came to 0.34.

As for B5, the relative binding ratio turned out to be 0.04.

Consider B6, for which the relative binding ratio stood at 0.07.

Consider B7, for which the relative binding ratio came to 0.07.

Take B8: the relative binding ratio was 0.45.

Regarding B9, the relative binding ratio is 0.41.

On to B10, for which the relative binding ratio worked out at 0.07.

Turning to B11, the relative binding ratio is 0.41.

As to B12, the relative binding ratio amounted to 0.04.

For B13, the relative binding ratio was determined as 0.49.

In the case of B14, the relative binding ratio amounted to 0.56.

B15: the relative binding ratio came to 0.8.

For the molecule B16, the relative binding ratio came to 0.34.

As to B17, the relative binding ratio came out at 0.52.

With B18, the relative binding ratio turned out to be 0.38.
